Measurements taken from patent publication US20160032014A1 (Amgen, published 2016).

B1: 20D12 (antibody, human IgG2, lambda, V domains shown)
VH: QVQLQQWGAGLLKPSETLSLTCAVSGGSFRAYYWNWIRQPPGKGLEWIGEINHSGRTDYNPSLKSRVTISVDTSKNQFSLKLSSVTAADTAVYYCARGQLVPFDYWGQGTLVTVSS
VL: not shown
notes: tested as hybridoma supernatant
B2: 19A12 (antibody, human IgG2, kappa, V domains shown)
VH: QVQLVESGGGVVQPGRSLRLSCAASGFTFSSYGMHWVRQAPGKGLEWVAVIWYDGSNKYYADSVKGRFTISRDNSKNTLYLQMNSLRAEDTAVYYCVRDRGLDWGQGTLVTVSS
VL: not shown
notes: as for B1
B3: 25B5 (antibody, human IgG2, lambda, V domains shown)
VH: QIQLVQSGAEVKKPGASVKVSCKASGYTLTSYGISWVRQAPGQGLEWMGWISFYNGNTNYAQKVQGRVTMTTDTSTSTVYMELRSLRSDDTAVYFCARGYGMDVWGQGTTVTVSS
VL: QSALTQPASVSGSPGQSITISCTGTSSDVGGYNSVSWYQQHPGKPPKLMIYEVSNRPSGISNRFSGSKSGNTASLTISGLQAEDEADYFCSSYTSTSMVFGGGTKLAVLR
notes: as for B1
B4: 13G9 (antibody, human IgG2, lambda, V domains shown)
VH: QVQLVQSGAEVTKPGASVKVSCKASGYTFTSYGISWVRQAPGQGLEWMGWISVYKGNTNYAQKLQGRVTMTTDTSTSTAYMELRSLRSDDTAVYYCARNYQIFSFDYWGQGTLVTVSS
VL: QSVLTQPPSVSGAPGQRVTISCTGSRSNIGAGYDVNWYQQLPGTAPKLLIYGNSNRPSGVPDRFSGSKSGTSASLVITGLQAEDEADYYCQSYDSNLSGSVFGGGTKLTVLG
notes: as for B1
B5: SS-15005 (antibody, IgG2, V domains shown)
VH: EVQLLESGGGLVQPGGSLRLSCAASGFTFSSYAMNWVRQAPGKGLEWVSTISGSGGNTYYADSVKGRFTISRDNSKNTLYLQMNSLRAEDTAVYYCAKKFVLMVYAMLDYWGQGTLVTVSS
VL: DIQMTQSPSSLSASVGDRVTITCRASQSISIYLNWYQQKPGKAPYLLIYAAASLQSGVPSRFSGSGSGTDFTLTISSLQPEDFATYYCQQSYSAPITFGQGTRLEIKR
notes: also called 25G4

Tests used:
[1] = biological target: T1, human PCSK9 (self-cleaved, mature, secreted PCSK9 comprising amino acids 31 to 692 of SEQ ID NO: 2) (human, UniProt Q8NBP7 31-692, biotinylated in the ELISAs); test: ELISA, sup 1:125, expt 1
T1 construct: Limits 31-692 are stated for the immunogen; the assays only say human PCSK9; also called huPCSK9; rhu PCSK9

[2] = biological target: T1, human PCSK9 (self-cleaved, mature, …); test: ELISA, sup 1:125, expt 2
[3] = biological target: T1, human PCSK9 (self-cleaved, mature, …); test: ELISA, sup 1:625, expt 1
[4] = biological target: T1, human PCSK9 (self-cleaved, mature, …); test: ELISA, sup 1:625, expt 2
[5] = biological target: T1, human PCSK9 (self-cleaved, mature, …); test: ELISA pH 6, sup 1:125, expt 1
[6] = biological target: T1, human PCSK9 (self-cleaved, mature, …); test: ELISA pH 6, sup 1:125, expt 2
[7] = biological target: T1, human PCSK9 (self-cleaved, mature, …); test: ELISA pH 6, sup 1:625, expt 1
[8] = biological target: T1, human PCSK9 (self-cleaved, mature, …); test: ELISA pH 6, sup 1:625, expt 2
[9] = biological target: T1, human PCSK9 (self-cleaved, mature, …); test: ELISA pH 7.4, sup 1:125, expt 1
[10] = biological target: T1, human PCSK9 (self-cleaved, mature, …); test: ELISA pH 7.4, sup 1:125, expt 2
[11] = biological target: T1, human PCSK9 (self-cleaved, mature, …); test: ELISA pH 7.4, sup 1:625, expt 1
[12] = biological target: T1, human PCSK9 (self-cleaved, mature, …); test: ELISA pH 7.4, sup 1:625, expt 2
[13] = biological target: T2, human D374Y PCSK9 (human, UniProt Q8NBP7 31-692, limits assumed, biotinylated in the blocking ELISA); test: ELISA, blocking of biotin-D374Y PCSK9 binding to LDLR, expt. #1
T2 construct: also called D374Y PCSK9 mutant; biotinylated human D374Y PCSK9

[14] = biological target: T2, human D374Y PCSK9; test: ELISA, blocking of biotin-D374Y PCSK9 binding to LDLR, expt. #2
[15] = biological target: T1, human PCSK9 (self-cleaved, mature, …); test: ELISA, supernatant on captured biotin-PCSK9, late primary screen
[16] = biological target: T1, human PCSK9 (self-cleaved, mature, …); test: ELISA, supernatant on captured biotin-PCSK9, early primary screen
[17] = biological target: T1, human PCSK9 (self-cleaved, mature, …); test: solution equilibrium
[18] = biological target: T1, human PCSK9 (self-cleaved, mature, …); test: solution equilibrium, BIAcore, pH 5.5
[19] = biological target: T1, human PCSK9 (self-cleaved, mature, …); test: solution equilibrium, KinExA or BIAcore, pH 7.4

Row | Binder | OD diff (pH 7.4 - pH 6) [1] [OD] | OD diff (pH 7.4 - pH 6) [2] [OD] | OD diff (pH 7.4 - pH 6) [3] [OD] | OD diff (pH 7.4 - pH 6) [4] [OD] | OD 450 nm [5] [OD] | OD 450 nm [6] [OD] | OD 450 nm [7] [OD] | OD 450 nm [8] [OD] | OD 450 nm [9] [OD] | OD 450 nm [10] [OD] | OD 450 nm [11] [OD] | OD 450 nm [12] [OD] | % Inhibition [13] [%] | % Inhibition [14] [%] | OD 450 nm [15] [OD] | OD 450 nm [16] [OD] | pH 5.5/7.4 KD ratio [17] | Kd [18] [nM] | Kd [19] [nM]
1 | B1 | 1.2 | 1.3 | 1.6 | 0.7 | 3 | 2.8 | 0.9 | 0.8 | 4.2 | 4.1 | 2.5 | 1.5 | 91 | 92 | 4.2 | 6 |  |  | 
2 | B2 | 0.7 | 1.4 | 1.2 | 0.7 | 2.9 | 2.5 | 1.9 | 1.8 | 3.6 | 3.9 | 3 | 2.5 | 89 | 91 | 3.8 | 3.7 |  |  | 
3 | B3 | 0.8 | 0.9 | 0.3 | 0 | 1.3 | 1.7 | 0.5 | 0.5 | 2.1 | 2.6 | 0.8 | 0.5 | 94 | 93 | 4.3 | 6 |  |  | 
4 | B4 | 2.2 | 1.8 | 1.5 | -0.6 | 3.8 | 4.2 | 2 | 1.6 | 6 | 6 | 3.4 | 1 | 62 | 77 | 3.6 | 3.8 |  |  | 
5 | B5 |  |  |  |  |  |  |  |  |  |  |  |  |  |  |  |  | 1.9 | 0.15 | 0.078
